This is an account of results in PMC4361584, “Glyceraldehyde 3-Phosphate Dehydrogenase-Telomere Association Correlates with Redox Status in Trypanosoma cruzi”.

The target in series [1] is T1, rTcGAPDH (glyceraldehyde 3-phosphate dehydrogenase) (Trypanosoma cruzi, UniProt P22513 1-359). The series is described as follows: EMSA; supershift with anti-GAPDH serum; 1x from 5x buffer: 20 mM HEPES pH 6.0, 1 mM EDTA, 10 mM (NH4)2SO4, 1 mM DTT, 0.2% Tween 20, 30 mM KCl; 0.1 ug poly-lysine, 1 ug poly[d(I-C)], 20 ul, on ice 15 min; 6% native gel, 0.25x TBE. Conditions: protein: recombinant; tags: His-tag; chain copies: 4; label: DIG-11-ddUTP at 3' end (terminal transferase); single strand. A general note: Mobility shift assays separate free from complexed probe on a gel.

Series [2] deals with T1, rTcGAPDH (glyceraldehyde 3-phosphate …). The series is described as follows: EMSA; 50 uM GAPDH; 1x from 5x buffer: 20 mM HEPES pH 6.0, 1 mM EDTA, 10 mM (NH4)2SO4, 1 mM DTT, 0.2% Tween 20, 30 mM KCl; 0.1 ug poly-lysine, 1 ug poly[d(I-C)], 20 ul, on ice 15 min; 6% native gel, 0.25x TBE. The note with it: protein: recombinant; tags: His-tag; chain copies: 4; label: DIG-11-ddUTP at 3' end; single strand.

T1 sequence (P22513 whole entry): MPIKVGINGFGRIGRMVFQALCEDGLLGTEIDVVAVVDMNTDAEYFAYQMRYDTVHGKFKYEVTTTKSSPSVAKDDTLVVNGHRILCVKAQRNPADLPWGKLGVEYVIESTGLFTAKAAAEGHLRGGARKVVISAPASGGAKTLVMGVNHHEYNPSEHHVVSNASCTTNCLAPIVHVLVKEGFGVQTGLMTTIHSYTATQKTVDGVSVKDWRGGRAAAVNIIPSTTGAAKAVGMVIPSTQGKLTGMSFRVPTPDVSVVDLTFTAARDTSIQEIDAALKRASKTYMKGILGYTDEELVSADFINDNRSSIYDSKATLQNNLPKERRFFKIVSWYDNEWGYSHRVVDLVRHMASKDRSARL

Regarding TTAGGGTTAGGGTTAGGGTTAGGGTTAGGGTTAGGG (ssDNA) [ss (TTAGGG)6], the binding result in series [1] is given as “binds”. In the case of TTAGGG (ssDNA) [ss (TTAGGG)1], the binding result in series [2] is “binds”. For the molecule TTAGGGTTAGGGTTAGGG (ssDNA) [ss (TTAGGG)3], the binding result in series [2] is given as “binds”.
